{
  "source": "patent US20210115146A1",
  "about": "(WUXI BIOLOGICS IRELAND, published 2021)",
  "binders": {"B1": {"name": "W5626-2C10-z5 (humanized VHH of W5626-2C10 further comprising a human Fc of IgG1 isotype) (Fc fusion)", "chain": "AVQLVESGGGLVQPGGSLTLSCAASGRTFSSYAMGWFRQAPGKEREFVAADRWSGGNTRYADSVKGRFTISRDNAKNTLYLQMNSLRAEDTAVYYCAATYLSSDYEWGVPPKAYDYDYWGQGTLVTVSS", "notes": "Bivalent humanized VHH linked with human IgG1 Fc region; not shown: human IgG1 Fc region from a modified pcDNA3.3 vector"}},
  "key": {"[1]": {"target": "T1, mouse EGFR (cell surface) (mouse, UniProt Q01279 25-1210)", "T1 construct": "whole, on cells; also called W562-CHO-K1.mProl.F3 cells", "test": "FACS on cells expressing mouse EGFR", "experimental": "(§1) The binding of antibodies to cell surface EGFR was assessed by FACS with EGFR transfected cells and A431 cell line, which over expresses human EGFR. 1×10⁵ cells/well were plated in a 96-well plate and centrifuged at 210 g for 5 minutes at 4° C. After removing the supernatant, the cell pellets were re-suspended with serial dilutions of testing purified antibodies in 1% BSA-PBS and incubated for 1 hour at 4° C., followed by incubation with FITC conjugated goat anti-human IgG (Jackson ImmunoResearch) at 4° C. for 1 hour. Two times of washing with 200 μl/well 1% BSA-PBS were applied between each step. Finally, the cells were resuspended in 100 μl 1% BSA-PBS for flow cytometry analysis (Intellicyt)."}, "[2]": {"target": "T2, human EGFR (cell surface) (human, UniProt P00533 25-1210)", "T2 construct": "whole, on cells; also called W562-CHO-K1.hPro1.E9 cells; A431 cells", "test": "FACS binding to A431 cells (printed 'A432' in paragraph 253) after 0, 1, 4, 7 and 14 days in human serum at 37 C; lower panel", "experimental": "Freshly collected human blood was incubated in polystyrene tubes without anticoagulant for 30 minutes at room temperature. The Serum was collected after centrifugation the blood at 4000 rpm for 10 minutes. Repeat the centrifugation until the serum was clarifying. Gently mix antibodies with serum and ensure the serum content >95%. The mix aliquots were incubated at 37° C. for 0 day, 1 day, 4 days, 7 days and 14 days, respectively. At the indicated time point the samples were quickly-frozen in liquid nitrogen and stored at −80° C. until analysis. The cell bindings of the serial dilutions of the antibody samples to A432 cells were analyzed by FACS. Four-parameter non-linear regression analysis was used to obtain EC₅₀ values for cell binding using GraphPad Prism 5 software (GraphPad Software, La Jolla, Calif.)."}, "[3]": {"target": "T2, human EGFR (cell surface)", "test": "FACS competition with EGF-biotin (50 ng/ml) on A431 cells", "experimental": "EGFR-expressing A431 cells were routinely maintained in DMEM containing 10% FBS, 10 mM HEPES and L-glutamine. 10⁵ cells per well were added to each well of a 96-well plate and centrifuged at 210 g for 5 minutes at 4° C. before the supernatant was removed. Serial dilutions of test antibodies were added to the pelleted cells and incubated for 1 hour at 4° C. […] MFI of the cells was measured by flow cytometry and analyzed by FlowJo."}, "[4]": {"target": "T2, human EGFR (cell surface)", "test": "cell-based or functional assay"}, "[5]": {"target": "T2, human EGFR (cell surface)", "test": "FACS affinity on transfected cells, quantitative beads", "experimental": "(§2) Human, cyno, mouse EGFR and human EGFRvIII transfected cells were transferred in to 96-well U-bottom plates (BD) at a density of 5×10⁴ cells/well, respectively. Testing antibodies were 1:3.16-fold serially diluted in 1% BSA-PBS and incubated with the cells at 4° C. for 1 hr. The secondary antibody, Alexa647 conjugated goat anti-human IgG Fc (Jackson Immunoresearch Lab), was added to resuspended cells and incubated at 4° C. in the dark for 1 hr. The cells were then washed once and resuspended in PBS with 1% BSA, and analyzed by flow cytometery (BD). Fluorescence intensity was converted to bound molecules/cell based on the quantitative beads (Quantum™ MESF Kits, Bangs Laboratories). KD was calculated using Graphpad Prism5."}, "[6]": {"target": "T3, Macaca fascicularis EGFR (cell surface) (Macaca fascicularis, UniProt A0A2K5WK39 25-1210)", "T3 construct": "whole, on cells; also called monkey EGFR; cyno EGFR", "test": "FACS affinity on transfected cells, quantitative beads", "experimental": "as §2"}, "[7]": {"target": "T4, human EGFRvIII (cell surface) (human, UniProt P00533 25-1210)", "T4 construct": "whole, on cells; also called hEGFRIII; EGFR variant III", "test": "FACS affinity on transfected cells, quantitative beads", "experimental": "as §2"}, "[8]": {"target": "T1, mouse EGFR (cell surface)", "test": "FACS affinity on transfected cells, quantitative beads", "experimental": "as §2"}, "[9]": {"target": "T3, Macaca fascicularis EGFR (cell surface)", "test": "FACS on cells expressing monkey EGFR", "experimental": "as §1"}, "[10]": {"target": "T5, human EGFR ECD protein (W562-hPro1.ECD.his) (human, UniProt P00533 25-645)", "T5 construct": "extracellular domain; Made in HEK293 cells", "test": "SPR (ProteOn XPR36), antibody captured by anti-human IgG Fc, EGFR ECD.his as analyte", "experimental": "Each antibody was captured on an anti-human IgG Fc antibody immobilized GLM sensor chip (Bio-Rad). W562-hPro1.ECD.his at different concentrations was injected over the sensor chip at a flow rate of 100 uL/min for an association phase of 240 s, followed by 1800 s dissociation. The chip was regenerated by 10 mM glycine (pH 1.5) after each binding cycle. The sensorgrams of blank surface and buffer channel were subtracted from the test sensorgrams. The experimental data was fitted by 1:1 binding model using Langmiur analysis. Molecular weight of 85 kDa was used to calculate the molar concentration of analyte."}, "[11]": {"target": "T2, human EGFR (cell surface)", "test": "FACS on cells carrying human EGFR", "experimental": "as §1"}},
  "note": "Where “and” joins values, the source holds several entries; their conditions need not be identical. Identical values can stand only once.",
  "data": [
    {"binder": "B1", "values": [
      {"measurement": "EC50", "setting": "[1]", "result": 1.06, "unit": "nM"},
      {"measurement": "EC50 (read off the curve)", "setting": "[2]", "result": "~0.8", "unit": "nM"},
      {"measurement": "IC50", "setting": "[3]", "result": 2.58, "unit": "nM"},
      {"measurement": "EC50 of EGFR internalization (Fab-ZAP, viability of A431 cells)", "setting": "[4]", "result": 0.21, "unit": "nM"},
      {"measurement": "IC50 of inhibition of EGFR phosphorylation (pEGFR sandwich ELISA, A431 cells stimulated with EGF)", "setting": "[4]", "result": "10.4 nM and 22.6 nM"},
      {"measurement": "Bmax", "setting": "[5]", "result": 920, "unit": "pM"},
      {"measurement": "Kd", "setting": "[5]", "result": 1.4, "unit": "nM"},
      {"measurement": "Bmax", "setting": "[6]", "result": 230, "unit": "pM"},
      {"measurement": "Kd", "setting": "[6]", "result": 0.23, "unit": "nM"},
      {"measurement": "Bmax", "setting": "[7]", "result": 590, "unit": "pM"},
      {"measurement": "Kd", "setting": "[7]", "result": 0.32, "unit": "nM"},
      {"measurement": "Bmax", "setting": "[8]", "result": 890, "unit": "pM"},
      {"measurement": "Kd", "setting": "[8]", "result": 0.54, "unit": "nM"},
      {"measurement": "EC50", "setting": "[9]", "result": 0.58, "unit": "nM"},
      {"measurement": "Kd", "setting": "[10]", "result": 0.162, "unit": "nM"},
      {"measurement": "koff", "setting": "[10]", "result": 0.000105, "unit": "s⁻¹"},
      {"measurement": "kon", "setting": "[10]", "result": 646000, "unit": "M⁻¹ s⁻¹"},
      {"measurement": "EC50", "setting": "[11]", "result": 0.99, "unit": "nM"}
    ]}
  ]
}
